Starred links: 1 amine or outer side, 2 acyl side, 3 side chain; linkers in the order of their positions; H or OH if unused. Positions of bridges follow the written chain, without caps; N, C: chain ends. Non-standard residues stand in square brackets, D forms with d. No end group written: not given here. X1 = 3‑(7-(3-acetamidophenyl)-1H-indol-3-yl)‑2‑aminopropanoic acid, CC(=O)Nc1cccc(-c2cccc3c(CC(N[*:1])C(=O)[*:2])c[nH]c23)c1; X3 = 4‑(2-(4-(2-amino-2-carboxyethyl)phenoxy)ethyl)‑4‑methylmorpholin‑4‑ium, C[N+]1(CCOc2ccc(CC(N[*:1])C(=O)[*:2])cc2)CCOCC1; X10 = 2‑amino‑3‑(4-(2-guanidinoethoxy)phenyl)propanoic acid, N=C(N)NCCOc1ccc(CC(N[*:1])C(=O)[*:2])cc1; Trp(7-(3-AcNH-Ph)) = CC(=O)Nc1cccc(-c2cccc3c(C[C@H](N)C(=O)O)c[nH]c23)c1; N‑methyl‑N‑acetyllysine = N-methyl-N-acetyllysine; 2Nal(6-OH) = N[C@@H](Cc1ccc2cc(O)ccc2c1)C(=O)O; Trp(7-Me) = Cc1cccc2c(C[C@H](N)C(=O)O)c[nH]c12; dLys(Me3) = C[N+](C)(C)CCCC[C@@H](N)C(=O)O; 3Pal(5-Me) = Cc1cncc(C[C@H](N)C(=O)O)c1; AEF = NCCOc1ccc(C[C@H](N)C(=O)O)cc1; αMeF = C[C@](N)(Cc1ccccc1)C(=O)O; 3Pal = N[C@@H](Cc1cccnc1)C(=O)O; Pen = CC(C)(S)[C@H](N)C(=O)O; αMeC = C[C@](N)(CS)C(=O)O; Thp = NC1(C(=O)O)CCOCC1; Abu = CC[C@H](N)C(=O)O; Ahp = NCCCCCCC(=O)O; Sar = CNCC(=O)O
Target: T1, interleukin-23 receptor (IL-23R), Q5VWK5
T1 chain: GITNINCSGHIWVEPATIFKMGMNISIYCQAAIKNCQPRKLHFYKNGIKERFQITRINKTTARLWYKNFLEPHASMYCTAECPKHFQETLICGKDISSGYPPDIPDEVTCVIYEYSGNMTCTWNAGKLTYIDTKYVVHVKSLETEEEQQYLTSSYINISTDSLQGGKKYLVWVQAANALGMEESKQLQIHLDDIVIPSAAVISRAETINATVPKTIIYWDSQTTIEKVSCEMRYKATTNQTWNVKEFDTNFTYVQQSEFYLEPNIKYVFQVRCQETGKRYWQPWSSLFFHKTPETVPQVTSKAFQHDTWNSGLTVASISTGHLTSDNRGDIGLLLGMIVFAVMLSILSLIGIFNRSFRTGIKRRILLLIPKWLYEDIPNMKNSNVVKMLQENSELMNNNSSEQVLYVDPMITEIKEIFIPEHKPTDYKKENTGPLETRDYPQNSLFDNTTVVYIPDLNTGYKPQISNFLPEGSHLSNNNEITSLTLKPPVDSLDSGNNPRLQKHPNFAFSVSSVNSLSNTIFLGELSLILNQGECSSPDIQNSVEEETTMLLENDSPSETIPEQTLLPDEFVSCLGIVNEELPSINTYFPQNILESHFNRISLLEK
Assay: cell-based or functional assay

B1: SEQ ID NO: 53 (peptide)
peptide: R[Pen]NT[Trp(7-(3-AcNH-Ph))]K(Ac)[Pen][AEF][2Nal(6-OH)][Thp]EN[3Pal(5-Me)][Sar]
modifications: disulfide 2-7 (inferred); ends not checked
In the case of B1, the IL23R Reporter Assay IC50 is reported as under 10 nM.

B2: SEQ ID NO: 439 (peptide)
peptide: R[Pen]NT[Trp(7-Me)]K(Ac)[Pen][2‑amino‑3‑(4-(2-aminoethoxy)phenyl)propanoic acid][2‑amino‑3‑(5-carbamoylnaphthalen-2-yl)propanoic acid][Thp]EN[αMeF]
modifications: disulfide 2-7 (inferred); ends not checked
For B2, the IL23R Reporter Assay IC50 was over 100 nM and the PBMC pSTAT3 IC50 was under 1 nM.

B3: SEQ ID NO: 63 (peptide)
peptide: [Pen]NT[Trp(7-(3-AcNH-Ph))]K(Ac)[Pen][5‑(4-(2-amino-2-carboxyethyl)phenoxy)‑N,N,N‑trimethylpentan‑1‑aminium][2Nal(6-OH)][Thp]EN[3Pal][Sar]
modifications: disulfide 1-6 (inferred); ends not checked
B3 was tested, and the IL23R Reporter Assay IC50 was under 10 nM and the PBMC pSTAT3 IC50 was under 0.1 nM.

B4: SEQ ID NO: 9 (peptide)
peptide: [Pen]NT[X1]K(Ac)[Pen][X10][2‑amino‑3‑(6-hydroxynaphthalen-2-yl)propanoic acid][Thp]EN[3Pal][Sar]
modifications: ends and bridges not checked
B4 gave an IL23R Reporter Assay IC50 of under 10 nM and a PBMC pSTAT3 IC50 of over 1 nM.

B5: SEQ ID NO: 77 (peptide)
peptide: R[Pen]NT[Trp(7-Me)]K(Ac)[Pen][X3][2Nal(6-OH)][Thp]EN[3Pal][Sar]
modifications: not fully specified (bridges); ends and bridges not checked
B5 showed an IL23R Reporter Assay IC50 of under 10 nM and a PBMC pSTAT3 IC50 of under 10 pM.

B6: SEQ ID NO: 447 (peptide)
peptide: [Ahp][Pen]NT[Trp(7-Me)]K(Ac)[Pen][2‑amino‑3‑(4-(2-aminoethoxy)phenyl)propanoic acid][2‑amino‑3‑(6-hydroxynaphthalen-2-yl)propanoic acid][Thp]EN[3Pal][Sar]
modifications: disulfide 2-7 (inferred); ends not checked
B6 gave an IL23R Reporter Assay IC50 of over 100 nM and a PBMC pSTAT3 IC50 of under 1 nM.

B7: SEQ ID NO: 6 (peptide)
peptide: R[Abu]NT[Trp(7-(3-AcNH-Ph))]K(Ac)[αMeC][AEF][2Nal(6-OH)][Thp]EN[3Pal][Sar]
modifications: ends and bridges not checked
With B7 the IL23R Reporter Assay IC50 was under 10 nM and the PBMC pSTAT3 IC50 was under 0.1 nM.

B8: SEQ ID NO: 58 (peptide)
peptide: R[Pen]NT[Trp(7-Me)]K(Ac)[Pen][5‑(4-(2-amino-2-carboxyethyl)phenoxy)‑N,N,N‑trimethylpentan‑1‑aminium][2Nal(6-OH)][Thp]K(Ac)N[3Pal][Sar]
modifications: disulfide 2-7 (inferred); ends not checked
B8 gave an IL23R Reporter Assay IC50 of under 10 nM and a PBMC pSTAT3 IC50 of under 0.1 nM.

B9: SEQ ID NO: 67 (peptide)
peptide: [dLys(Me3)][Pen]NT[Trp(7-Me)]K(Ac)[Pen][5‑(4-(2-amino-2-carboxyethyl)phenoxy)‑N,N,N‑trimethylpentan‑1‑aminium][2Nal(6-OH)][Thp]EN[3Pal][Sar]
modifications: not fully specified (bridges); ends and bridges not checked
B9 gave an IL23R Reporter Assay IC50 of under 10 nM and a PBMC pSTAT3 IC50 of under 0.1 nM.

B10: SEQ ID NO: 64 (peptide)
peptide: R[Pen]NT[Trp(7-(3-AcNH-Ph))]K(Ac)[Pen][X3][2Nal(6-OH)][Thp]ENH[Sar]
modifications: disulfide 2-7 (inferred); ends not checked
In the case of B10, the PBMC pSTAT3 IC50 is reported as under 1 nM.

B11: SEQ ID NO: 437 (peptide)
peptide: R[Pen]NT[Trp(7-Me)]K(Ac)[Pen][2‑amino‑3‑(4-(2-aminoethoxy)phenyl)propanoic acid][2‑amino‑3‑(5-methoxynaphthalen-2-yl)propanoic acid][Thp]EN[αMeF]
modifications: disulfide 2-7 (inferred); ends not checked
In the case of B11, the IL23R Reporter Assay IC50 is reported as over 100 nM and the PBMC pSTAT3 IC50 is reported as over 1 nM.

B12: SEQ ID NO: 57 (peptide)
peptide: R[Pen]NT[Trp(7-Me)]K(Ac)[Pen][AEF][2Nal(6-OH)][Thp]ENH[Sar]
modifications: disulfide 2-7 (inferred); ends not checked
B12 gave a PBMC pSTAT3 IC50 of under 1 nM.

B13: SEQ ID NO: 441 (peptide)
peptide: R[Pen]NT[Trp(7-Me)]K(Ac)[Pen][2‑amino‑3‑(4-(2-aminoethoxy)phenyl)propanoic acid][2‑amino‑3‑(6-hydroxynaphthalen-2-yl)propanoic acid][Thp]EN[2‑amino‑3‑(5-carbamoylpyridin-3-yl)propanoic acid][Sar]
modifications: disulfide 2-7 (inferred); ends not checked
B13 gave an IL23R Reporter Assay IC50 of under 10 nM and a PBMC pSTAT3 IC50 of under 0.1 nM.

B14: SEQ ID NO: 65 (peptide)
peptide: R[Pen]NT[Trp(7-(3-AcNH-Ph))]K(Ac)[Pen]Y[2Nal(6-OH)][Thp]EN[3Pal][Sar]
modifications: not fully specified (bridges); ends and bridges not checked
In the case of B14, the IL23R Reporter Assay IC50 is reported as under 10 nM and the PBMC pSTAT3 IC50 is reported as under 1 nM.

B15: SEQ ID NO: 74 (peptide)
peptide: R[Pen]NTWK(Ac)[Pen][AEF][2Nal(6-OH)][Thp]EN[3Pal][Sar]
modifications: not fully specified (bridges); ends and bridges not checked
B15 gave an IL23R Reporter Assay IC50 of under 10 nM and a PBMC pSTAT3 IC50 of under 0.1 nM.

B16: SEQ ID NO: 8 (peptide)
peptide: [dLys(Me3)]CNT[Trp(7-Me)]K(Ac)[αMeC][2‑amino‑3‑(4-(2-aminoethoxy)phenyl)propanoic acid][2‑amino‑3‑(6-hydroxynaphthalen-2-yl)propanoic acid][Thp]EN[3Pal][Sar]
modifications: ends and bridges not checked
In the case of B16, the IL23R Reporter Assay IC50 is reported as under 10 nM and the PBMC pSTAT3 IC50 is reported as under 10 pM.

B17: SEQ ID NO: 56 (peptide)
peptide: [Pen]NT[Trp(7-Me)]K(Ac)[Pen][X3][2Nal(6-OH)][Thp]EN[3Pal][Sar]
modifications: disulfide 1-6 (inferred); ends not checked
With B17 the IL23R Reporter Assay IC50 was under 10 nM and the PBMC pSTAT3 IC50 was under 10 pM.

B18: SEQ ID NO: 429 (peptide)
peptide: R[Pen]NT[Trp(7-Me)]K(Ac)[Pen][2‑amino‑3‑(4-(2-aminoethoxy)phenyl)propanoic acid][2‑amino‑3‑(6-hydroxynaphthalen-2-yl)propanoic acid][Thp]ENA[Sar]
modifications: not fully specified (bridges); ends and bridges not checked
B18 was tested, and the IL23R Reporter Assay IC50 was over 100 nM and the PBMC pSTAT3 IC50 was over 1 nM.

B19: SEQ ID NO: 430 (peptide)
peptide: R[Pen]QTWQ[Pen][2‑amino‑3‑(4-(2-aminoethoxy)phenyl)propanoic acid][2‑amino‑3‑(6-hydroxynaphthalen-2-yl)propanoic acid][Thp]EN[Thp]
modifications: not fully specified (bridges); ends and bridges not checked
Binder B19 has an IL23R Reporter Assay IC50 of over 100 nM and a PBMC pSTAT3 IC50 of over 1 nM.

B20: SEQ ID NO: 7 (peptide)
peptide: R[Abu]NTWK(Ac)[αMeC][X10][2Nal(6-OH)][Thp]K(Ac)N[3Pal][Sar]
modifications: ends and bridges not checked
In the case of B20, the IL23R Reporter Assay IC50 is reported as under 10 nM and the PBMC pSTAT3 IC50 is reported as under 0.1 nM.

B21: SEQ ID NO: 62 (peptide)
peptide: [Pen]NT[Trp(7-(3-AcNH-Ph))]K(Ac)[Pen][X3][2Nal(6-OH)][Thp][N‑methyl‑N‑acetyllysine]NH[Sar]
modifications: disulfide 1-6 (inferred); ends not checked
Work on B21 yielded an IL23R Reporter Assay IC50 of under 10 nM and a PBMC pSTAT3 IC50 of under 1 nM.

B22: SEQ ID NO: 431 (peptide)
peptide: R[Pen]NT[Trp(7-Me)]K(Ac)[Pen][2‑amino‑3‑(4-(2-aminoethoxy)phenyl)propanoic acid][2‑amino‑3‑(6-(2-hydroxyphenyl)naphthalen-2-yl)propanoic acid][Thp]EN[Thp]
modifications: not fully specified (bridges); ends and bridges not checked
B22 gave an IL23R Reporter Assay IC50 of over 100 nM and a PBMC pSTAT3 IC50 of over 1 nM.

B23: SEQ ID NO: 445 (peptide)
peptide: R[Pen]NT[Trp(7-Me)]K(Ac)[Pen][2‑amino‑3‑(4-(2-aminoethoxy)phenyl)propanoic acid][2‑amino‑3‑(5-methylnaphthalen-2-yl)propanoic acid][Thp]EN[αMeF]
modifications: disulfide 2-7 (inferred); ends not checked
B23 was tested, and the IL23R Reporter Assay IC50 was over 100 nM and the PBMC pSTAT3 IC50 was over 1 nM.

B24: SEQ ID NO: 69 (peptide)
peptide: [Pen]NT[Trp(7-(3-AcNH-Ph))]K(Ac)[Pen][AEF][2Nal(6-OH)][Thp]EN[3Pal][Sar]
modifications: not fully specified (bridges); ends and bridges not checked
Binder B24 has an IL23R Reporter Assay IC50 of under 10 nM and a PBMC pSTAT3 IC50 of under 10 pM.
